Positions count from the first letter of the chain named.
Experiments:
[1] = biological target: recombinant mature human GDF-15 protein (SEQ ID No: 8) (human) (UniProt Q99988); assay: Surface Acoustic Wave (SAW) gold chip biosensor
[2] = biological target: T1, recombinant mature human GDF-15 protein (SEQ ID No: 8) (human, UniProt Q99988 197-308); assay: Surface Acoustic Wave (SAW) gold chip biosensor
T1 construct: also called recombinant human GDF-15; recombinant GDF-15
T1 sequence: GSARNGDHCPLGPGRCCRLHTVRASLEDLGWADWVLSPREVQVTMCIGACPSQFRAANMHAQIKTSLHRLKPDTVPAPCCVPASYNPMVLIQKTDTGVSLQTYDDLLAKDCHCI

[3] = biological target: T1, recombinant mature human GDF-15 protein …; assay: Surface Acoustic Wave (SAW) gold chip biosensor; antibody as serum-free CHO culture supernatant
[4] = biological target: human Interleukin-5 (human, UniProt P05113 20-134); assay: SPR (ProteOn XPR36), IL-5 immobilised, antibody as analyte
Excerpt: (§1) For preparing the biosensors recombinant mature human GDF-15 protein was immobilized on flow cells 1 and 2. On one flow cell recombinant GDF-15 derived from Baculvirus-transfected insect cells (HighFive insect cells) and on the other recombinant protein derived from expression in E. coli was used. The GLC sensor chip was activated using Sulfo-NHS (N-Hydroxysulfosuccinimide) and EDC (1-Ethyl-3-[3-dimethylaminopropyl]carbodiimide hydrochloride) (Bio-Rae ProteOn™ Amine Coupling Kit) according to the manufacturer's recommendation, the sensor surface was subsequently loaded with the proteins up to a density of about 600 RU (1 Ru=1 pg mm⁻²). The non-reacted coupling groups were then quenched by perfusion with 1M ethanolamine pH 8.5 and the biosensor was equilibrated by perfusing the chip with running buffer ([…], 150 mM NaCl, 3.4 mM EDTA, 0.005% Tween®20, pH 7.4, referred to as HBS150). As controls two flow cells were used, one empty with no protein coupled and one coupled with an non-physiological protein partner (human Interleukin-5), which was immobilized using the same coupling chemistry and the same coupling density. […] The resulting sensogram was analyzed using the software ProteOn Manager version 3.0. […]

[5] = biological target: T1, recombinant mature human GDF-15 protein …; assay: Surface Acoustic Wave (SAW) gold chip biosensor; remark: listed apart in the source
[6] = biological target: T1, recombinant mature human GDF-15 protein …; assay: SPR (ProteOn XPR36), KD=koff/kon, insect-cell GDF-15 immobilised
Excerpt: as §1

[7] = biological target: T1, recombinant mature human GDF-15 protein …; assay: SPR (ProteOn XPR36), insect-cell GDF-15 immobilised, antibody as analyte, 1:1 Langmuir, 25° C.
Excerpt: as §1

[8] = biological target: T2, recombinant mature human GDF-15 protein derived from expression in E. coli (human, UniProt Q99988 195-308); assay: SPR (ProteOn XPR36), E. coli GDF-15 immobilised, antibody as analyte
T2 construct: mature; also called GDF-15 derived from E. coli expression
T2 sequence (looked up): T1 sequence with G1A, S2R
Excerpt: as §1

human Interleukin-5, sequence (P05113 20-134 limits assumed): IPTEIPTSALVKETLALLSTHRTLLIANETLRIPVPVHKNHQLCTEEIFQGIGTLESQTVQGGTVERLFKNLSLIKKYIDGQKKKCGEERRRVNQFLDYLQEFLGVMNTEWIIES

Rituxumab (control antibody) gave a Kd [1] of 1120 nM.

B1: H1L5 humanized B1-23 anti-GDF-15 antibody (antibody, human IgG1, V domains shown)
VH: QITLKESGPTLVKPTQTLTLTCTFSGFSLSTSGMGVSWIRQPPGKGLEWLAHIYWDDDKRYNPTLKSRLTITKDPSKNQVVLTMTNMDPVDTATYYCARSSYGAMDYWGQGTLVTVSS
VL: DIVLTQSPSFLSASVGDRVTITCKASQNVGTNVAWFQQKPGKSPKALIYSASYRYSGVPDRFTGSGSGTEFTLTISSLQPEDFAAYFCQQYNNFPYTFGGGTKLEIKR
notes: Human IgG1 (trastuzumab backbone); also called H1L5 anti-GDF-15 antibody; humanized B1-23-H1L5 antibody
B1 was tested, and the “fold higher affinity than the murine B1-23 antibody” value [2] was about 5 fold and the Kd [3] was 5.62 nM.

B2: murine monoclonal anti-human GDF-15 antibody mAb-B1-23 (antibody, V domains shown)
VH: QVKLQQSGPGILQSSQTLSLTCSFSGFSLSTSGMGVSWIRQPSGKGLEWLAHIYWDDDKRYNPTLKSRLTISKDPSRNQVFLKITSVDTADTATYYCARSSYGAMDYWGQGTSVTVSS
VL: DIVLTQSPKFMSTSVGDRVSVTCKASQNVGTNVAWFLQKPGQSPKALIYSASYRYSGVPDRFTGSGSGTDFTLTISNVQSEDLAEYFCQQYNNFPYTFGGGTKLEIKR
notes: also called anti-human GDF-15 mAb-B1-23; B1-23 anti-GDF-15 antibody (murine, IgG2a)
B2 was tested, and the binding result [4] was “no binding (tested: 0.4, 0.8, 3, 12, 49 and 98 nM)”, the Kd [5] was 28.8 nM and the Kd [6] was about 0.79 nM. The koff [7] was 0.00043 s⁻¹, the kon [7] was 540000 M⁻¹ s⁻¹ and the “factor by which the affinity differs from that for insect-cell GDF-15” value [8] was under 2 fold.

B3: chimeric anti-human GDF-15 mAb-B1-23 antibody (antibody, human IgG1, kappa, V domains shown)
VH: B2 VH
VL: B2 VL
notes: Murine variable domains, constant domains of a human IgG1 (trastuzumab backbone); also called Chimeric B1-23 anti-GDF-15 antibody; chimeric B1-23
B3 was tested, and the Kd [5] was 14 nM and the “fold higher affinity than the murine B1-23 antibody” value [2] was about 2 fold.
